Test results from a protein production outcome set (Wang et al. 2014).

Assay: label from the status in PepcDB records

Sequence | protein production
MEDDCEELQVPVGTLTSIGFSISNNNDRDKMSVLEVEAPNQVTDSRLGLPNPDSVCRTCGSKDRKVCEGHFGVINFAYSIINPYFLKEVAALLNKICPGCKYIRKKQFQITEDQPERCRYCTLNTGYPLMKFRVTTKEVFRRSGIVVEVNEESLMKLKKRGVLTLPPDYWSFLPQDSNIDESCLKPTRRIITHAQVYALLLGIDQRLIKKDIPMFNSLGLTSFPVTPNGYRVTEIVHQFNGARLIFDERTRIYKKLVGFEGNTLELSSRVMECMQYSRLFSETVSSSKDSANPYQKKSDTPKLCGLRFMKDVLLGKRSDHTFRTVVVGDPSLKLNEIGIPESIAKRLQVSEHLNQCNKERLVTSFVPTLLDNKEMHVRRGDRLVAIQVNDLQTGDKIFRSLMDGDTVLMNRPPSIHQHSLIAMTVRILPTTSVVSLNPICCLPFRGDFDGDCLHGYVPQSIQAKVELDELVALDKQLINRQNGRNLLSLGQDSLTAAYLVNVEKNCYLNRAQMQQLQMYCPFQLPPPAIIKASPSSTEPQWTGMQLFGMLFPPGFDYTYPLNNVVVSNGELLSFSEGSAWLRDGEGNFIERLLKHDKGKVLDIIYSAQEMLSQWLLMRGLSVSLADLYLSSDLQSRKNLTEEISYGLREAEQVCNKQQLMVESWRDFLAVNGEDKEEDSVSDLARFCYERQKSATLSELAVSAFKDAYRDVQALAYRYGDQSNSFLIMSKAGSKGNIGKLVQHSMCIGLQNSAVSLSFGFPRELTCAAWNDPNSPLRGAKGKDSTTTESYVPYGVIENSFLTGLNPLESFVHSVTSRDSSFSGNADLPGTLSRRLMFFMRDIYAAYDGTVRNSFGNQLVQFTYETDGPVEDITGEALGSLSACALSEAAYSALDQPISLLETSPLLNLKNVLECGSKKGQREQTMSLYLSEYLSKKKHGFEYGSLEIKNHLEKLSFSEIVSTSMIIFSPSSNTKVPLSPWVCHFHISEKVLKRKQLSAESVVSSLNEQYKSRNRELKLDIVDLDIQNTNHCSSDDQAMKDDNVCITVTVVEASKHSVLELDAIRLVLIPFLLDSPVKGDQGIKKVNILWTDRPKAPKRNGNHLAGELYLKVTMYGDRGKRNCWTALLETCLPIMDMIDWGRSHPDNIRQCCSVYGIDAGRSIFVANLESAVSDTGKEILREHLLLVADSLSVTGEFVALNAKGWSKQRQVESTPAPFTQACFSSPSQCFLKAAKEGVRDDLQGSIDALAWGKVPGFGTGDQFEIIISPKVHGFTTPVDVYDLLSSTKTMRRTNSAPKSDKATVQPFGLLHSAFLKDIKVLDGKGIPMSLLRTIFTWKNIELLSQSLKRILHSYEINELLNERDEGLVKMVLQLHPNSVEKIGPGVKGIRVAKSKHGDSCCFEVVRIDGTFEDFSYHKCVLGATKIIAPKKMNFYKSKYLKNGTLESGGFSENP | failed
MEDELPIIKGKKVILFAPTFRGSGHGTAHYPFFKIDFERLARYCEKNNAVVLFKMHPFVKNRLNIADKHKQYFVDVSDFREVNDILFITDLLISDYSSLIYEYAVFKKPMIFYAFDLEDYITTRDFYEPYESFVPGKIVQSFDALMDALDNEDYEGEKVIPFLDKHFKYQDGRSSERLVRNLFGS | not failed
MEDEPGSENEADTIVASPLAKWRIEFSKSFQNYLDRSAPNIVRRWLVTLVAAVIYIYRVYSVYGYFVISYGLATYILNLLIGFLSPKVDPELEALDPDSLPVDESDEYKPFVRRLPEFKFWYAATKAFVVAFVMTFFSFLDVPVFWPILLCYWLVLYSLTMKRLIVHMFKYRYFPFDVRKPVKLLKFLVNSVLTFLRLKKQIQIGHHTRRTVWTRVYLLDFLDIGLANIHRVYAQLHLQQQQNIVKDIAMRDYWRDSIRQFPRKYLFITYQRFDEKSFLVSANHPKSAMEATTRILSTSSALNRLLLLSKLNLKSDPRNINSTNQLLHNAVTRKSSISAARIRCSSLPANANLFRSLFFLTSTFRLENTAVHANPFRSEPNDGVAVWNRAPRIVNGGGNAAIFGGNEGKETTVVLLGWLGAKAKHLRRYVEWYNSRGINAVTFTVDVRDLLRLDLGRRLERRIAEFGNELVNWVSEKEDDGREKCLVFHSFSNTGWLVYGALLESFIGRQDLVERIKGCIIDSGGADPLDTKVCSLFHVTKSFKCYSMVSPLLQDLVLEVEMSILL | failed
MEDFNMESDSFEDFWKGEDLSNYSYSSTLPPFLLDAAPCEPESLEINKYFVVIIYALVFLLSLLGNSLVMLVILYSRVGRSVTDVYLLNLALADLLFALTLPIWAASKVNGWIFGTFLCKVVSLLKEVNFYSGILLLACISVDRYLAIVHATRTLTQKRYLVKFICLSIWGLSLLLALPVLLFRRTVYSSNVSPACYEDMGNNTANWRMLLRILPQSFGFIVPLLIMLFCYGFTLRTLFKAHMGQKHRAMRVIFAVVLIFLLCWLPYNLVLLADTLMRTQVIQETCERRNHIDRALDATEILGILHSCLNPLIYAFIGQKFRHGLLKILAIHGLISKDSLPKDSRPSFVGSSSGHTSTTL | not failed
MEDGHISSWWVVDLGEEHQLMCNYYTFRQDGSRAFTRFWKFQGSMDGKTWTDLRVHEDDQTMCKAGQFASWPITAANALLPFRFFRLVLTGPTADTSTPWNFCICYLELYGYFR | failed
MEDIKIKEIFENIYEVDLGDGLKRIATKSIVKGKKVYDEKIIKIGDEEYRIWNPNKSKLAAAIIKGLKVMPIKRDSKILYLGASAGTTPSHVADIADKGIVYAIEYAPRIMRELLDACAERENIIPILGDANKPQEYANIVEKVDVIYEDVAQPNQAEILIKNAKWFLKKGGYGMIAIKARSIDVTKDPKEIFKEQKEILEAGGFKIVDEVDIEPFEKDHVMFVGIWEGK | not failed
MEDLEETLFEEFENYSYDLDYYSLESDLEEKVQLGVVHWVSLVLYCLAFVLGIPGNAIVIWFTGFKWKKTVTTLWFLNLAIADFIFLLFLPLYISYVAMNFHWPFGIWLCKANSFTAQLNMFASVFFLTVISLDHYIHLIHPVLSHRHRTLKNSLIVIIFIWLLASLIGGPALYFRDTVEFNNHTLCYNNFQKHDPDLTLIRHHVLTWVKFIIGYLFPLLTMSICYLCLIFKVKKRSILISSRHFWTILVVVVAFVVCWTPYHLFSIWELTIHHNSYSHHVMQAGIPLSTGLAFLNSCLNPILYVLISKKFQARFRSSVAEILKYTLWEVSCSGTVSEQLRNSETKNLCLLETAQ | failed
MEDQCIISHLAGIFSGVLATDFLRYAVGAGGVYLTVNLALAARLRARKIRAYEPPKGQIGREILASLRTVLIFALNGTLIVVGAEAGLVPIYREIATHGWAYLFFSTTVLIVAHDTWFYWSHRLLHYPPIFRRFHRLHHKSHNPTPFTSYSFDLGEAVVNAIYLPLILLVLPAHPVAILVFVTHMMLRNAIGHSGYEIFPANRRGKPLFDWITTVTHHDLHHAHAGYNLGLYFTWWDRLMGTEHPDYHEAFQKVAKPASWPSVRAVILAFAIFTGIAVSDARAERLSGAYASPGFGVIVRFEPCNANPGLTCGRMIWAWDAAEVPHAQSGDVIVIDLHGDGNVWSGRLKNPENGRMYRGSVVQRSPDTIVLRGCAGPFCTSQIWHSVRALRRALESAE | failed
MEDSSLLSPISLLTIVIFLFILNLMMIIQDFSSSFPFRFHLFFSNAYILFTSIRNNKQNTELPIIKKVVVPNRADIKTSVEEVKAIIDDSEALYECLIEEGEEYLLEKNEMMGKEIVKEAFRLFDENQDGFIDENELKHVLSLLGYDECTKMECRKMVKVYDENRDGKIDFYEFVKLIEKSFS | failed
MEDTMSKKAKKIIKIVVISIVTLAITICFGGYMMFHNEIKTLHSIEKLDDYPFYMMEYYGDYGLDEFLEQGGASSDSELVSFVVKRLMKGLPIEINIPSLGCSTFTAVTPENEYLFGRNFDLSYSPAMMVRTKPEKGYESVSMVNLGFIGYGKDKLPDNFFNSITTLAGPYAPLDGMNEKGLSVGVLLIPTEETNQTTNKVDITTTTAIRMILDTCATVEEAVDLLSQYDMHSSANSCYHFQIADANGTSVVVEYINNEMKLVEPKQAYQAATNFLLTPGDYDFGHGQDRYNTLMTTLDKKQGVLSEKEAMNLLKAVSQQPHKTKDGSISATQWSVVYNNTKRTATVSMGMDYQHTYEIKLFE | failed
MEEENNLNSKDTQNTFLKGSAWMTFGSIASRILGALYIIPWYAWMGQYGNIANALTARSYNIYTIFILISTAGIPGAIAKQVAKYNALNEYGIGRRLFHKGLILMAILGVVSAAIMYFASPLLASNGSQSDPRQIAVMRSLSYAILIIPILSIMRGYFQGYADMMPSAMSQFVEQFARVVWMLLTAFVIMQVQHGSYVHAVIQSNLAAAVGAAFGIGLLVWFLFSRRKQLDYLVANSNNRLRVSTTELFAEIIEQAIPFIIIDSGITLFSLVDQYTFHPMIAGLVHASSDAIEDWYALFGLNANKLIMIIVSLASAMAVTAIPLLSAAHTRGDYKSISRQIANTMDLFLFVMIPAAFGMAAISRPIYTVFYGPDQLGSNVLYLSAFTAISLGLFTVLMAILQGLSENGLAIKYLVLGLILKGILQYPMIFLFKIYGPLVATNLGLLVIVLLSLKHLEVQYNFNLNRTSRRLVGITAFSIGMFIIVKLVEMGLGKFLSPDRRISALILVIVAVSIGIIFYGFAALKTDLAQKIMGSKIESILVRLRIHD | failed
MEEGDFFNCCFSEISSGMTMNKKKMKKSNNQKRFSEEQIKSLELIFESETRLEPRKKVQVARELGLQPRQVAIWFQNKRARWKTKQLEKEYNTLRANYNNLASQFEIMKKEKQSLVSELQRLNEEMQRPKEEKHHECCGDQGLALSSSTESHNGKSEPEGRLDQGSVLCNDGDYNNNIKTEYFGFEEETDHELMNIVEKADDSCLTSSENWGGFNSDSLLDQSSSNYPNWWEFWS | failed
MEEISGGALTDTLTDIVTWAAKEVGAIALGASLGAIFGTAYAGRWGGVSGGIFGIGSIGQGVGMIAGVILGGVCFGIAAGIVGWDMTLDYAQGVMDAIYDGTLNFWSN | failed
MEELKTKGEHGNEEAKKAPATGETETVEKNVAIRRTSTASSEQDLDTFLLGDLEDSDEAPDDGDGSLEDDFDKIGNSDVEDEKQSSKATTNAGNEVSC | failed
MEELQYFPYEKFRPNQREFIEIVKEAVKRGENLIVEAPTGFGKTISVLAGVLPYAISLGYKVVYLARTHKQMDRVIEELRKIGEKSEVSGIEFRSRKDLCLHAYIQTFAQDAYTSMIVCKSLRKLGKCKYYENLKEKRDRVDEIVKFFLSFPPFPREVIEYSELLELCPYEITKKVGEKANVVVASYLYMISPPIRQAFLENLGVDYSDLIVIFDEAHNLPDQAISALSDRLSVRSIERAIKEAEEYGEKDIENFLSILLRGLEILYKEKLENYESEEIPIRPEEVFLHPASILGWRGRDIGMMLEDMIEVGDAIREDRIERNLPPRSYVGRVGEFLWNWLSLRDREDYLHLFTKEKGLALELVALDPSVALDFLEEVHSAIFMSGTLSPLEAFRDIIGVNARLKKFPRIVKRENAIVLVARDVSTRGIERSPPLYKRIAEYIFEAVKNTPKNVGVFTASYEVLEGVLSTNVHIKIEEEVGKKVFIEKKDAPSRENDEMIREFKEESKGKGAVLFGVMGGRNSEGQDYSGDEMNGVILVGIPYARPTPRVQAQTRYFEKKFPGKGRYYGYILPAHRKLAQAAGRVHRSENEKGSIVILDYRVLWKNVKKDLPDWMVETMIPVTLPTLRIKLRRFWRERLNE | failed
MEELSSVGEQVFAAECILSKRLRKGKLEYLVKWRGWSSKHNSWEPEENILDPRLLLAFQKKEHEKEVQNRKRGKRPRGRPRKLTAMSSCSRRSKLKEPDAPSKSKSSSSSSSSTSSSSSSDEEDDSDLDAKRGPRGRETHPVPQKKAQILVAKPELKDPIRKKRGRKPLPPEQKATRRPVSLAKVLKTARKDLGAPASKLPPPLSAPVAGLAALKAHAKEACGGPSAMATPENLASLMKGMASSPGRGGISWQSSIVHYMNRMTQSQAQAASRLALKAQATNKCGLGLDLKVRTQKGELGMSPPGSKIPKAPSGGAVEQKVGNTGGPPHTHGASRVPAGCPGPQPAPTQELSLQVLDLQSVKNGMPGVGLLARHATATKGVPATNPAPGKGTGSGLIGASGATMPTDTSKSEKLASRAVAPPTPASKRDCVKGSATPSGQESRTAPGEARKAATLPEMSAGEESSSSDSDPDSASPPSTGQNPSVSVQTSQDWKPTRSLIEHVFVTDVTANLITVTVKESPTSVGFFNLRHY | failed
